Data from the supplement of paper PMC9112550, “Optimization of the antimicrobial peptide Bac7 by deep mutational scanning” (BMC Biology, 2022).

test system: Escherichia coli TOP10; assay: shrunken log2 fold change of peptide-encoding DNA abundance (4.5 h post-induction vs induction); higher = less antimicrobial activity (less host growth inhibition); conditions: time post-induction: 4.5 h; library: site-saturation at positions 5, 18, 19, 20
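Note: peptides expressed intracellularly from a pBAD plasmid library in pooled LB shake-flask culture, induced with 0.3% L-arabinose, DNA abundance read by NGS, three biological replicates, DESeq2 with apeglm shrinkage.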

Row | Sequence | shrunken log2 fold change
1 | RRIRYRPPRLPRPRPRPARFPRP | 0.181
2 | RRIRWRPPRLPRPRPRPPTPPRP | 1.4
3 | RRIRHRPPRLPRPRPRPMWRPRP | 0.136
4 | RRIRSRPPRLPRPRPRPGWAPRP | 0.706
5 | RRIRVRPPRLPRPRPRPNVFPRP | 0.0413
6 | RRIRFRPPRLPRPRPRPFIMPRP | -0.655
7 | RRIRLRPPRLPRPRPRPHRSPRP | 0.0989
8 | RRIRNRPPRLPRPRPRPKWHPRP | 0.129
9 | RRIRYRPPRLPRPRPRPDNFPRP | -1.09
10 | RRIRCRPPRLPRPRPRPMILPRP | -0.352
11 | RRIRWRPPRLPRPRPRPWPEPRP | 0.167
12 | RRIRLRPPRLPRPRPRPLKFPRP | -0.57
13 | RRIRRRPPRLPRPRPRPEQPPRP | 0.389
14 | RRIRKRPPRLPRPRPRPRHRPRP | 0.264
15 | RRIRSRPPRLPRPRPRPINGPRP | -0.00748
16 | RRIRGRPPRLPRPRPRPPIWPRP | 0.67
17 | RRIRSRPPRLPRPRPRPQLPPRP | 0.53
18 | RRIRGRPPRLPRPRPRPWQCPRP | 0.0158
19 | RRIRWRPPRLPRPRPRPQHEPRP | -0.0328
20 | RRIRLRPPRLPRPRPRPLDRPRP | 0.25
21 | RRIRCRPPRLPRPRPRPLTHPRP | -0.345
22 | RRIRKRPPRLPRPRPRPRQCPRP | -0.0759
23 | RRIRHRPPRLPRPRPRPYRLPRP | -0.302
24 | RRIRARPPRLPRPRPRPSSTPRP | -0.0285
25 | RRIRYRPPRLPRPRPRPANPPRP | -0.422

Row | Sequence | shrunken log2 fold change
26 | RRIRARPPRLPRPRPRPEINPRP | 0.96
27 | RRIRGRPPRLPRPRPRPNNYPRP | 0.0781
28 | RRIRNRPPRLPRPRPRPCRTPRP | -0.124
29 | RRIRCRPPRLPRPRPRPIPNPRP | 0.0105
30 | RRIRERPPRLPRPRPRPTARPRP | 0.258
31 | RRIRMRPPRLPRPRPRPVQIPRP | 0.378
32 | RRIRPRPPRLPRPRPRPMSSPRP | -0.135
33 | RRIRWRPPRLPRPRPRPFHRPRP | -0.2
34 | RRIRMRPPRLPRPRPRPWSPPRP | -0.508
35 | RRIRWRPPRLPRPRPRPAGWPRP | 0.922
36 | RRIRFRPPRLPRPRPRPYVSPRP | -0.438
37 | RRIRHRPPRLPRPRPRPMADPRP | 0.0417
38 | RRIRTRPPRLPRPRPRPRERPRP | 0.112
39 | RRIRFRPPRLPRPRPRPQFVPRP | -0.434
40 | RRIRERPPRLPRPRPRPKVEPRP | -0.0672
41 | RRIRIRPPRLPRPRPRPIYRPRP | -0.191
42 | RRIRQRPPRLPRPRPRPFIKPRP | -0.382
43 | RRIRNRPPRLPRPRPRPWMSPRP | -0.0131
44 | RRIRCRPPRLPRPRPRPNITPRP | -0.884
45 | RRIRKRPPRLPRPRPRPWKWPRP | -0.0168
46 | RRIRERPPRLPRPRPRPHYFPRP | -0.658
47 | RRIRDRPPRLPRPRPRPPWEPRP | 0.0453
48 | RRIRYRPPRLPRPRPRPERPPRP | 0.232
49 | RRIRYRPPRLPRPRPRPYMGPRP | -0.019
50 | RRIRCRPPRLPRPRPRPQVHPRP | -0.233

Row | Sequence | shrunken log2 fold change
51 | RRIRARPPRLPRPRPRPEIEPRP | 0.719
52 | RRIRFRPPRLPRPRPRPMPVPRP | -0.0124
53 | RRIRQRPPRLPRPRPRPQAFPRP | -0.0347
54 | RRIRCRPPRLPRPRPRPFHHPRP | -0.00672
55 | RRIRNRPPRLPRPRPRPRHHPRP | -0.246
56 | RRIRWRPPRLPRPRPRPADQPRP | 0.0591
57 | RRIRSRPPRLPRPRPRPNRSPRP | -0.0737
58 | RRIRHRPPRLPRPRPRPMCDPRP | -0.0945
59 | RRIRIRPPRLPRPRPRPIQNPRP | -0.225
60 | RRIRNRPPRLPRPRPRPRTYPRP | -0.571
61 | RRIRTRPPRLPRPRPRPEIMPRP | -0.468
62 | RRIRTRPPRLPRPRPRPYGNPRP | -0.0638
63 | RRIRTRPPRLPRPRPRPWCFPRP | -0.046
64 | RRIRYRPPRLPRPRPRPFIDPRP | -0.018
65 | RRIRYRPPRLPRPRPRPQNKPRP | -0.969
66 | RRIRGRPPRLPRPRPRPKIHPRP | 0.373
67 | RRIRLRPPRLPRPRPRPFSAPRP | -0.177
68 | RRIRFRPPRLPRPRPRPPFNPRP | -0.245
69 | RRIRERPPRLPRPRPRPTNLPRP | -0.0315
70 | RRIRPRPPRLPRPRPRPSSSPRP | -0.134
71 | RRIRYRPPRLPRPRPRPMLSPRP | 0.0215
72 | RRIRTRPPRLPRPRPRPNHSPRP | -0.925
73 | RRIRKRPPRLPRPRPRPASDPRP | 0.981
74 | RRIRGRPPRLPRPRPRPLTSPRP | 0.167
75 | RRIRMRPPRLPRPRPRPNHDPRP | -0.261
